From patent publication US20220096654A1, “PYRROLOBENZODIAZEPINE-ANTIBODY CONJUGATES AND USES THEREOF” (ADC THERAPEUTICS SA, priority 2020, published 2022)

Legend:
Nalm6 (CD45-) = assay: Cell viability assay 5 days (PrestoBlue), Nalm6; type: cell-based, human; settings: rat IgG2b ADC, n=3
Protocol: OCIM1, Jurkat and Nalm6 cells were seeded at a final concentration of 1.275×10^4/mL and for 5 days in presence of rat IgG2b Mab or ADC or medium (in triplicate) in wells of flat bottom 96-well plates. 293T cells were seeded at 9.3×10^3 cells per 100 uL per well in flat bottom 96-well plates and allowed to adhere the plate for up to 24 hours. 293T cells were subsequently cultured with rat IgG2b Mabs or ADC or medium (in triplicate wells) as described above. PrestoBlue® Cell viability Reagent (Thermo Fisher Scientific) was added to each and incubated for up to 1.5 hours. Fluorescence intensity from each well was detected using a FLUOstar OPTIMA microplate reader (BMG Labtech). Data was plotted using Prism 8.0 and sigmoid dose-response non-linear regression was used to determine EC50 values. Data points are mean±s.d. for representative experiments.

[1] = 1 mg/kg, NSG mice; for T %: serum ELISA
Protocol: Adult (non-humanized) NSG mice were injected with 1 mg/kg ADC. Three mice were used for each ADC. Samples were taken from mice at between 3 h and 168 h after injection. Serum samples were analyzed by ELISA using recombinant human CD45 (Bio-Techne). Goat anti-rat IgG (H+L) (cross absorbed) and sulfoTAG Streptavidin was used to detect the total amounts of the YTH antibodies. Anti-drug antibody was used to detect the level of conjugated antibody.

human CD45+ cells [2] = assay: Depletion of human CD45+ cells in humanised NSG mice; type: in vivo
Protocol: Adult female NSG mice were sublethally irradiated with 2.5 Gy on the day before transplantation (day −57). Cryopreserved purified CD34+ cells from mobilized peripheral blood from a normal donor were thawed and 0.5×10^6 cells in PBS were injected intravenously into the tail vein of mice (day −56). Human engraftment (human CD45+ cells) in the blood of mice was assessed at day −14 and day −1. Mice were assigned to treatment cohorts so that the median human CD45+ engraftment in the blood between the cohorts was as similar as possible. Mice were injected with 0.3 mg/kg or 1 mg/kg Mab or ADC intravenously via the tail vein. Blood samples were taken after 7 days and analysed by flow cytometry. The bone marrow, blood and spleen of mice were analysed at two weeks post-treatment.

human CD45+ cells [3] = assay: Allogeneic stem cell transplant model in humanized NSG mice, comparison of payloads; type: in vivo; settings: 1 mg/kg; for mean % hCD45+ engraftment in the bone marrow: 8 weeks after allogeneic GFP+ cells, PBS 14.12%
Protocol: Adult NSG mice (Charles River Laboratories) were sublethally irradiated with 2.5 Gy in a ^137Cs irradiator. On the following day, mice were injected with 0.5×10^6 freshly thawed cryopreserved human CD34+ cells from a health donor were injected via the tail vein in 150 μL PBS using a 29 gauge MicroFine Plus insulin syringe (BD). Engraftment of human cells in the blood was assessed periodically from 6 weeks after transplantation. At 10 weeks post-transplant, humanized NSG mice were assigned into cohorts with similar median human CD45+ cell engraftment in the blood, as determined by flow cytometry. Mice were injected with PBS or 1 mg/kg YTH24.5-B1. Sixteen 16 days after treatment, mice were transplanted with 0.5×10^6 GFP+CD34+ cells from another healthy donor. Irradiated NSG […] were also transplanted with the GFP+CD34+ from the allogeneic healthy donor as a control for engraftment of the GFP+CD34+ cells. 8 weeks after transplantation of GFP+ cells, mice were culled and blood, spleen and bone marrow taken for analysis by flow cytometry.
Experimental schedule is as previously described in example 16 but with the following modifications. Humanized NSG mice at 10 weeks post-transplant were injected with PBS or 1 mg/kg YTH24.5-B1, YTH54.12-B1, Isotype-B1, YTH24.5-B4 and Isotype-3376. Isotype-B2 and YTH24.5-B2 was given at a dose of 5 mg/kg. Transplantation of 0.5×10^6 GFP+CD34+ from an allogeneic human donor and analysis at 8 weeks post-transplant of GFP+ cells was carried out as previously described.

fLuc+ OCIM1 cells = assay: AML model in NSG mice, treatment the day after cell injection; type: in vivo; settings: for tumor (bioluminescence) signal: 1 mg/kg or 5 mg/kg i.v. the day after OCIM1 injection; for mice developing tumor / tumor signal: 1 mg/kg or 5 mg/kg i.v., cohorts of 5 mice
Protocol: NSG mice were transplanted with 7.5×10^6 luciferase expressing fLuc+ OCIM1 cells i.v. On the following day, unconjugated rat IgG2b antibodies or ADCs were injected i.v. via a tail vein at a dose of 1 mg/kg or 5 mg/kg. Mice were regularly monitored for signs of morbidity for the duration of the experiment. For imaging, mice were injected intraperitoneally with 200 μl of 15 mg/mL D-luciferin (Regis Technologies) in PBS. Mice were subsequently anesthetized with 4% isoflurane and maintained at 2% isoflurane. Ten minutes after injection of D-luciferin, mice were placed with anterior side up inside a IVIS Lumina III (PerkinElmer). A sub-saturating image was captured using the auto-exposure setting in the Living Image software (v4.5). Quantification and preparation of images was also carried out using the same software.

OCIM1 (CD45+) = assay: Cell viability assay 72 h (PrestoBlue), OCIM1; type: cell-based, human; settings: drug-linker B1
Protocol: OCIM1, Jurkat and Nalm6 cells were seeded at 0.5×10^5/mL were cultured for 72 hours in presence of Mab or ADC or medium (in triplicate wells) in wells of flat bottom 96-well plates. 293T cells were seeded at 9.3×10^3 cells per well in flat bottom 96-well plates and allowed to adhere the plate for up to 24 hours. 293T cells were subsequently cultured with Mab or ADC or medium (in triplicate wells) for 72 hours. PrestoBlue® Cell viability Reagent (Thermo Fisher Scientific) was added to each and incubated for up to 1.5 hours. Fluorescence intensity from each well was detected using a FLUOstar OPTIMA microplate reader (BMG Labtech). Data points are mean±s.d. for representative experiments.

[4] = Dosimetry in non-humanised NSG mice; type: in vivo; settings: non-humanised NSG mice, monitored 2 weeks
Protocol: For dosimetry in non-humanised NSG mice, adult NSG mice were injected intravenously via the tail vein with unconjugated Mab or ADC up to 5 mg/kg. Mice regularly monitored over a period of 2 weeks for any signs of morbidity. Mice were culled if rapid weight loss (>15%) occurred over a period of 2 days.

B1: YTH24.5-B1: rat IgG2b anti-CD45 antibody YTH24.5 conjugated to cleavable PBD drug-linker B1 (drawing 43) (conjugate)
heavy: QVNLLQSGAALVKPGASVKLSCKASSYTFTDYYIHWVKQSHGKTLEWIGYINPKSGFTNYNEKFRRKATLTVDKSTNTAYMDISRLTSEDSATYYCTRRTGVIPMDAWGQGASVTVSSAQTTAPSVYPLAPGCGDTTSSTVTLGCLVKGYFPEPVTVTWNSGALSSDVHTFPAVLQSGLYTLTSSVTSSTWPSQTVTCNVAHPASSTKVDKKVERRNGGIGHKCPTCPTCHKCPVPELLGGPSVFIFPPKPKDILLISQNAKVTCVVVDVSEEEPDVQFSWFVNNVEVHTAQTQPREEQYNSTFRVVSALPIQHQDWMSGKEFKCKVNNKALPSPIEKTISKPKGLVRKPQVYVMGPPTEQLTEQTVSLTCLTSGFLPNDIGVEWTSNGHIEKNYKNTEPVMDSDGSFFMYSKLNVERSRWDSRAPFVCSVVHEGLHNHHVEKSISRPPGK
light: DVVMTQTPVSLSVSLGGQVSISCRSSQSFVSSDGNTYLNWYLQKPGQSPQLLIYKVSNRLSGVPDRFSGSGSGTDFTLKISRVEHDDLGVYYCGQASKIPLTFGSGTKLEIKRADAAPTVSIFPPSMEQLTSGGATVVCFVNNFYPRDISVKWKIDGSEQRDGVLDSVTDQDSKDSTYSMSSTLSLTKVEYERHNLYTCEVVHKTSSSPVVKSFNRNEC
EC50 (Nalm6 (CD45-)): 9.34 pM | time after injection by which below the lower limit of detection [1]: ~4 days | T % [1]: 1.49 days | Mean % hCD45 levels in blood, 1 week post-treatment (human CD45+ cells [2]; 0.3 mg/kg i.v.): 5.63% | Mean % hCD45 levels in blood, 2 weeks Post-treatment (human CD45+ cells [2]; 0.3 mg/kg i.v.): 1.75% | course of the levels of human CD45+ cells in blood (human CD45+ cells [2]; 0.3 mg/kg, two week period): persistent loss | Mean % hCD45 levels in blood, 1 week post-treatment (human CD45+ cells [2]; 1 mg/kg i.v.): 1.08% | Mean % hCD45 levels in blood, 2 weeks Post-treatment (human CD45+ cells [2]; 1 mg/kg i.v.): 0.64% | Mean % hCD45 levels in blood, Pre-treatment (human CD45+ cells [2]; group later dosed 0.3 mg/kg): 8.89% | Mean % hCD45 levels in blood, Pre-treatment (human CD45+ cells [2]; group later dosed 1 mg/kg): 6.08% | percentage GFP+ human CD34+ cells in the bone marrow (mean) (human CD45+ cells [3]): 59.13% | mean % hCD45+ engraftment in the bone marrow (human CD45+ cells [3]): 16.45% | tumor (bioluminescence) signal (fLuc+ OCIM1 cells): Low/absent tumor signal | mice developing tumor / tumor signal (fLuc+ OCIM1 cells): 1 out of 5 | EC50 values, viability assay, OCIM1 (CD45+) (OCIM1 (CD45+)): low pM range | Comment (survival / culling) ([4]; 0.5 mg/kg i.v.): All alive at day 14 | Comment (survival / culling) ([4]; 5 mg/kg i.v.): All alive at day 14

B2: YTH54.12-B1: rat IgG2b anti-CD45 antibody YTH54.12 conjugated to cleavable PBD drug-linker B1 (drawing 43) (conjugate)
heavy: EVQLVESGGGLVQPGGSMKLSCAASGFTFSDYYMAWVRQAPKKGLEWVASMSFAGSSTYYGDSVKGRFTISRDNAKTTLYLQMNSLRSEDTATYYCARMYTTDYYLYWYFDFWGPGTMVTVSSAQTTAPSVYPLAPGCGDTTSSTVTLGCLVKGYFPEPVTVTWNSGALSSDVHTFPAVLQSGLYTLTSSVTSSTWPSQTVTCNVAHPASSTKVDKKVERRNGGIGHKCPTCPTCHKCPVPELLGGPSVFIFPPKPKDILLISQNAKVTCVVVDVSEEEPDVQFSWFVNNVEVHTAQTQPREEQYNSTFRVVSALPIQHQDWMSGKEFKCKVNNKALPSPIEKTISKPKGLVRKPQVYVMGPPTEQLTEQTVSLTCLTSGFLPNDIGVEWTSNGHIEKNYKNTEPVMDSDGSFFMYSKLNVERSRWDSRAPFVCSVVHEGLHNHHVEKSISRPPGK
light: DVQMTQSPSYLAASPGESVSISCKASKSISNYLAWYQQKPGEANKILIYSGSTLQSGTPSRFSGSGSGTDFSLTIRNLEPEDFAVYYCQQYDEKPLTFGSGTKLEIKRADAAPTVSIFPPSMEQLTSGGATVVCFVNNFYPRDISVKWKIDGSEQRDGVLDSVTDQDSKDSTYSMSSTLSLTKVEYERHNLYTCEVVHKTSSSPVVKSFNRNEC
EC50 (Nalm6 (CD45-)): 9.64 pM | AUC relative to YTH24.5-PBD [1]: ~1.5 times | time after injection by which below the lower limit of detection [1]: ~4 days | T % [1]: 1.53 days | Mean % hCD45 levels in blood, 1 week post-treatment (human CD45+ cells [2]; 0.3 mg/kg i.v.): 2.99% | Mean % hCD45 levels in blood, 2 weeks Post-treatment (human CD45+ cells [2]; 0.3 mg/kg i.v.): 1.31% | Mean % hCD45 levels in blood, 1 week post-treatment (human CD45+ cells [2]; 1 mg/kg i.v.): 0.75% | Mean % hCD45 levels in blood, 2 weeks Post-treatment (human CD45+ cells [2]; 1 mg/kg i.v.): 0.38% | Mean % hCD45 levels in blood, Pre-treatment (human CD45+ cells [2]; group later dosed 0.3 mg/kg): 5.37% | Mean % hCD45 levels in blood, Pre-treatment (human CD45+ cells [2]; group later dosed 1 mg/kg): 6.14% | percentage GFP+ human CD34+ cells in the bone marrow (mean) (human CD45+ cells [3]): 69.40% | mean % hCD45+ engraftment in the bone marrow (human CD45+ cells [3]): 16.34% | tumor (bioluminescence) signal (fLuc+ OCIM1 cells): increasing tumor signal from day 18 onwards | mice developing tumor / tumor signal (fLuc+ OCIM1 cells): 1 out of 5 | EC50 values, viability assay, OCIM1 (CD45+) (OCIM1 (CD45+)): low pM range | Comment (survival / culling) ([4]; 0.5 mg/kg i.v.): All alive at day 14 | Comment (survival / culling) ([4]; 5 mg/kg i.v.): All alive at day 14
